The source of these data is US20150004190A1.

“And” between values parts separate entries of the source, which are not always exact repeats. Equal values may be shown once. Read-outs that look alike come from different tables or passages of the source.

Assay [1] concerns the target P1 (aa 630-685) clade B HXB2 HIV-1 (HIV-1 clade B HXB2) (UniProt P04578). The experiment in a line: ELISA on coated peptide (FIG. 1). On the technique in general: In an ELISA, binding on a coated surface is turned into a signal by an enzyme label.
Assay [2] concerns the target P1-PE (HIV-1 clade B HXB2) (UniProt P04578). As to the kind of experiment: ELISA, P1-PE in raft liposomes R1 (P1:lipids 1 for 100), nonlinear regression.
The target is the same in assay [3]. The experiment in a line: ELISA, P1-PE in viral liposomes V2 (P1:lipids 1 for 20), nonlinear regression.
The target is the same in assay [4]. As to the kind of experiment: ELISA, P1-PE in raft liposomes R2 (P1:lipids 1 for 20), nonlinear regression.
The target is the same in assay [5]. As to the kind of experiment: ELISA, P1-PE in viral liposomes V1 (P1:lipids 1 for 100), nonlinear regression.
Assay [6] concerns the target P1 (aa 630-685) clade B HXB2 HIV-1 (HIV-1 clade B HXB2) (UniProt P04578). As to the kind of experiment: ELISA, P1 without lipid, nonlinear regression.
In assay [7] the target is P1-PE (HIV-1 clade B HXB2) (UniProt P04578).

A word on the Kd: it is the constant that tells how readily two partners part at equilibrium. Take 2F5 IgA2 (antibody): the antibody concentration of equivalent binding activity in assay [1] turned out to be 0.05 nM. For the same substance, the Kd in assay [2] was 50 pM; in assay [3], 24 pM; in assay [4], 61 pM; in assay [5], 24 pM; in assay [6], 200 pM; in assay [7], 150 pM and 210 pM.

On to 2F5 IgG1 (antibody), for which the antibody concentration of equivalent binding activity in assay [1] amounted to 6.25 nM. Besides, the Kd is 500 pM in assay [2]; 410 pM in assay [3]; 510 pM in assay [4]; 310 pM in assay [5]; 7380 pM in assay [6]; 1330 pM and 690 pM in assay [7].
